{"source": "patent US20240024520A1", "about": "“AUTONOMOUS KNOB DOMAIN PEPTIDES” (UCB BIOPHARMA SRL, priority 2020, published 2024)", "assay_type_in_all_cases": "binding", "key": {"C5 [1]": {"molecular_target": "T1, C5 (Homo sapiens, UniProt P01031)", "T1 sequence (P01031 19-1676)": "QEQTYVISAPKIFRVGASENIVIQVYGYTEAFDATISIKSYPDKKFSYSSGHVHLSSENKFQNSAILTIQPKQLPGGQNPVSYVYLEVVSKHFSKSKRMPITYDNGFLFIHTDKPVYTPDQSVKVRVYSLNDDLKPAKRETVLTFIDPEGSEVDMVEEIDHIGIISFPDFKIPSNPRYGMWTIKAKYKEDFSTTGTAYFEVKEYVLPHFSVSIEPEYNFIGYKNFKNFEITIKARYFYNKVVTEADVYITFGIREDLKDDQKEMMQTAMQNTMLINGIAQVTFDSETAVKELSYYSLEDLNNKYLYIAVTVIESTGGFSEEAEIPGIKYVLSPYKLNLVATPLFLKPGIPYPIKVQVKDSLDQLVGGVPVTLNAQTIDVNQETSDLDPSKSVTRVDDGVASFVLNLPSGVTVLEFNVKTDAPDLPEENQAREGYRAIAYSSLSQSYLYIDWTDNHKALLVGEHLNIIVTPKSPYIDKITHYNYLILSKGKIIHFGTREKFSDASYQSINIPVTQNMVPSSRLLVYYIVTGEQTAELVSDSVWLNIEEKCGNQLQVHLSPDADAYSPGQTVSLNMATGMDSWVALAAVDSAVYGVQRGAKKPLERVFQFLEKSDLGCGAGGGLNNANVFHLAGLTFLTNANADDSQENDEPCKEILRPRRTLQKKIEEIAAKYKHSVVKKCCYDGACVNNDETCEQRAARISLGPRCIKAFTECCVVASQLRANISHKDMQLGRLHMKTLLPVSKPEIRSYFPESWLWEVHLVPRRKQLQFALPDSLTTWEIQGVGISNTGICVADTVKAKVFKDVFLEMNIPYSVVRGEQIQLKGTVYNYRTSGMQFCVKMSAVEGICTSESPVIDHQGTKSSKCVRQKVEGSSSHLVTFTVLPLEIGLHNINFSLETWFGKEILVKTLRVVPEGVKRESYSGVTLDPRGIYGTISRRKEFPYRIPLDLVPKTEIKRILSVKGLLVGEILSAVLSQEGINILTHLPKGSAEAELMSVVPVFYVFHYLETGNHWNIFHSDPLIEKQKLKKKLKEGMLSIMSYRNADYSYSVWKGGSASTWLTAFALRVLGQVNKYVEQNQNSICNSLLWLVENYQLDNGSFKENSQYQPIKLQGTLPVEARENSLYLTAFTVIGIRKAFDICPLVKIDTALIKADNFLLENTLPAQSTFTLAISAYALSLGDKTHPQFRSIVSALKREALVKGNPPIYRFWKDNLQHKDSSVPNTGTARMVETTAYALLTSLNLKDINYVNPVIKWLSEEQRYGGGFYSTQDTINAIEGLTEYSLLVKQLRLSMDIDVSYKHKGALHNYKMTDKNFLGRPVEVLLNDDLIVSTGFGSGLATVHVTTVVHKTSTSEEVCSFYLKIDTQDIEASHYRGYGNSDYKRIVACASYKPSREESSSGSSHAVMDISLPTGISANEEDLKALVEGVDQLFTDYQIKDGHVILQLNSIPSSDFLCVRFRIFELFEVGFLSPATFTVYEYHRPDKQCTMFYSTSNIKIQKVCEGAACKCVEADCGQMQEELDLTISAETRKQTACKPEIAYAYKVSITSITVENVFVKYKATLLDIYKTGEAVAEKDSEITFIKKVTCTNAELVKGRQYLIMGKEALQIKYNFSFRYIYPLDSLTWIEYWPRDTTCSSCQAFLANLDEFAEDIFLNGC", "test": "Monoclonal phage screening ELISA, human C5", "method": "(§1) For the C5 libraries, a single round of enrichment was performed with either human or rat C5 protein. […] Phage were blocked for 30 minutes. Biotinylated antigen was added to the blocked phage at a concentration of 100 nM and incubated at room temperature with mixing.\n(§2) Colonies were picked into a 96-well culture plate containing selective medium 2TY supplemented with 1% Glucose and 100 μg/ml Carbenicillin and was incubated at 37° C. until wells reached mid-log phase of growth prior to addition of M13K07 helper phage. The block was incubated without shaking for 1 hour to achieve infection and phage production using continued culture in selective media supplemented with 50 μg/ml Kanamycin and 100 μg/ml Carbenicillin.\nBinding to antigen was assessed by monoclonal phage ELISA, 96-well flat bottom Nunc MaxiSorp plates (Thermofisher) were coated with a 2.5 μg/ml solution of human, mouse, or rat serum albumin, human C5 or mouse C5 diluted with PBS, and left overnight at 4° C. Negative control plate and Anti-myc tag plate were also prepared.\n(§3) Monoclonal phage rescue supernatants were blocked with an equal volume of a 2% milk (w/v) in PBS, for serum albumin proteins, or 2% BSA and 2% milk (w/v) in PBS solution. The coating solution was removed from coated Nunc plates and each plate was blocked with 1% BSA in PBS (for C5 libraries) or 1% milk powder (for albumin library). Both phage and Nunc plates were blocked for 1 hour at room temperature. Nunc plates were washed using a 96-well microplate washer (BioTek) with a PBS solution contain 0.1% Tween20 (Sigma Aldrich). 100 of blocked phage solution was added to each well of Nunc MaxiSorp plate and left shaking at room temperature for 1 hour. Plates were washed and dried as previously described. 100 of an Anti-M13-Horse radish peroxidase conjugated antibody (GE Healthcare) diluted (1:5,000) in a 1% BSA or milk solution was added to each well and left shaking at room temperature for 1 hour. Plates were washed again and 50 μL of TMB solution (Merck Millipore) was added to each well. Plates were left shaking for 10 minutes. Absorbance was measured at 630 nm and 490 nm. Binding signals were obtained where Absorbance at 630 nm was >3-times the signal upon irrelevant antigen.\n(§4) By monoclonal phage ELISA the following ultralong CDR-H3 sequences were identified as binders (OD>0.2 AU): […]"}, "rat C5 protein": {"molecular_target": "rat C5 protein (Rattus norvegicus, UniProt P08650)", "sequence (P08650 19-674 limits assumed)": "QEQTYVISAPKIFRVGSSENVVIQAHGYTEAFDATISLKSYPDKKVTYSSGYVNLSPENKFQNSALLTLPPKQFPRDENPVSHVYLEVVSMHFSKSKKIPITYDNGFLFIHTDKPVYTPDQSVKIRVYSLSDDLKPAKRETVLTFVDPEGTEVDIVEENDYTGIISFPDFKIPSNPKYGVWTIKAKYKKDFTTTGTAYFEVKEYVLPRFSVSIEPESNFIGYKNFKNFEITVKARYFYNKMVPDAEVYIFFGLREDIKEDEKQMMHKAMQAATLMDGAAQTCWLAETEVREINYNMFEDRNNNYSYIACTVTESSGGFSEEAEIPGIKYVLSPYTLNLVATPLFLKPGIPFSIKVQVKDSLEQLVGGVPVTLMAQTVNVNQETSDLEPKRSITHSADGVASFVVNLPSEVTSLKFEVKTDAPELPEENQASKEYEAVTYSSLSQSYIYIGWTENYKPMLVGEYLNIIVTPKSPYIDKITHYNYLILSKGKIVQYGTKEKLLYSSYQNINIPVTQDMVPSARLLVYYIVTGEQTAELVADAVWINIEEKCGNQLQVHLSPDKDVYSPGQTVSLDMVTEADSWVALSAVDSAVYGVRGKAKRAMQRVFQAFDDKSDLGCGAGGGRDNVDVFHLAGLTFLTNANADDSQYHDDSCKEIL", "sequence (P08650 679-1681 limits assumed)": "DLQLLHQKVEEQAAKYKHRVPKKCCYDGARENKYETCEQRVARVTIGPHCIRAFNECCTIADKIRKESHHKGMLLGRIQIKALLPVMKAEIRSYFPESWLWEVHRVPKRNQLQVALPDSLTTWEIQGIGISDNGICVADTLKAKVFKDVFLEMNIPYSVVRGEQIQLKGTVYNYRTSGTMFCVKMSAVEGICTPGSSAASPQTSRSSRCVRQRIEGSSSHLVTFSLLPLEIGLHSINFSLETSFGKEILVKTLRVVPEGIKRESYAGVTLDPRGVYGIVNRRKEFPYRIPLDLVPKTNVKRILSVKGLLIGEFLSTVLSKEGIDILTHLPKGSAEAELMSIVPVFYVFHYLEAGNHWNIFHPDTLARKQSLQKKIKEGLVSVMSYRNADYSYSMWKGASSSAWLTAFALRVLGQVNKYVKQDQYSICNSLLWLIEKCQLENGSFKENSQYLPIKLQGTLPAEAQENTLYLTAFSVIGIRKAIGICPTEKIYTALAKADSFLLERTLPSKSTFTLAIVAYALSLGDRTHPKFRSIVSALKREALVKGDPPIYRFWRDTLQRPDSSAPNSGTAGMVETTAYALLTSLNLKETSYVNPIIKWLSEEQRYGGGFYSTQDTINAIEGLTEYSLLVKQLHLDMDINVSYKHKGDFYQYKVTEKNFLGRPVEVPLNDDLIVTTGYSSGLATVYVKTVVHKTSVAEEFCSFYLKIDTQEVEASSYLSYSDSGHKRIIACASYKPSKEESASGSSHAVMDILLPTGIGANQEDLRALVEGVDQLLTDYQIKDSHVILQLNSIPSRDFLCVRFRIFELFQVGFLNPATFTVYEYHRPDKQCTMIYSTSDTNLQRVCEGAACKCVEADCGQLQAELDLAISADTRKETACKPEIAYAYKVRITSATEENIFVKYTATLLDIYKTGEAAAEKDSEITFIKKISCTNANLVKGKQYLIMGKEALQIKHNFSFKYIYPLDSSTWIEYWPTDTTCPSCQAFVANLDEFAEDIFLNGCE", "test": "Monoclonal phage screening ELISA, rat C5", "method": "as §1, §2\n[…] Negative control plate and Anti-myc tag plate were also prepared.\nas §3, §4"}, "C5 [2]": {"molecular_target": "T1, C5", "test": "Biacore (SPR) single-cycle kinetics on immobilised C5", "conditions": "for kd: chemically derived knob domain peptides, n = 1; for kon: read-out: ka", "method": "Binding to C5 was measured using surface plasmon resonance (SPR) single-cycle kinetics as described below.\nBiacore single-cycle kinetics. Using a Biacore 8K (GE Healthcare), C5 was immobilized on a CM5 chip by amine coupling. Flow cells were activated using EDC/NHS (flow rate, 10 μL/min; contact time, 30 s). C5, at 1 μg/mL in pH 4.5 Sodium-acetate buffer, was immobilized on flow cell two only (flow rate, 10 μL/min; contact time, 420 s). Finally, ethanolamine was applied to both flow cells (flow rate, 10 μL/min; contact time, 420 s). A final immobilization level of approximately 2,000 response units was obtained.\nSingle-cycle kinetics were measured using titrations in HBS-EP buffer. A high flow rate of 40 μL/min was used, with a contact time of 230 s and a dissociation time of 900 s. Binding to the reference surface was subtracted, and the data were fitted to a single-site binding model using Biacore evaluation software.\nWe measured individual rate constants (kon and koff) and equilibrium dissociation constants (KD) for knob domain peptides binding to C5 by the Biacore single-cycle kinetics method described above.\nWe used SPR single cycle kinetics to measure binding to human C5 protein."}, "C5 [3]": {"molecular_target": "T1, C5", "test": "Biacore multi-cycle kinetics on human C5", "conditions": "for mean stoichiometric ratio: measured Rmax divided by theoretical Rmax, n = 3 experiments; for koff: read-out: mean Koff, multi-cycle kinetics, n = 3 experiments; for kon: read-out: mean Kon, multi-cycle kinetics, n = 3 experiments", "method": "Binding of knob domain peptides to human C5 was measured by SPR, using a multi-cycle kinetics method as follows:\nKinetics were measured using a Biacore 8K (GE Healthcare) with a CM5 chip, which was prepared as follows: EDC/NHS was mixed at 1:1 ratio (flow rate, 10 μL/min; contact time, 30 seconds), human C5 protein at 1 μg/mL in pH 4.5 sodium-acetate buffer, were injected over flow cell one only (flow rate, 10 μL/min; contact time, 60 seconds). Final immobilization levels in the range of 2000-3000 response units (RU) were obtained, to yield theoretical Rmax values of ˜50-60 RU. Serial dilutions of peptide were prepared in HBS-EP buffer and injected (flow rate, 30 μL/min; contact time, 240 seconds; dissociation time, 6000 seconds). After each injection, the surface was regenerated with two sequential injections of 2M MgCl2 (flow rate, […]; contact time, 30 seconds). Binding to the reference surface was subtracted, and the data were fitted to a single site binding model, using Biacore evaluation software."}, "[4]": {"conditions": "anti-C5 ultralong CDR-H3, binder = OD>0.2 AU"}, "[5]": {"conditions": "knob domain of the anti-C5 ultralong CDR-H3"}}, "note": "Bridge positions count the residues as written; N and C are the ends. Peptide text beside a SMILES is read from it.", "data": [{"molecule": "551 (TTVHQRTKKTCPLGYDLNYRCDHFNTCRVEECCKNGVVNAYGICEYAGGSATYTYEWYVD; Anti-C5 ultralong CDR-H3) [compound 551]", "values": [{"measurement": "Specificity", "setting": "C5 [1]; [4]", "result": "Human and Rat"}, {"measurement": "Specificity", "setting": "rat C5 protein; [4]", "result": "Human and Rat"}]}, {"molecule": "552 (TTVHQRTKEERTCPSGCSWFSGCWDTYRCGPSVCCRDGRYGCAAIICRDTYEWYVD; Anti-C5 ultralong CDR-H3) [compound 552]", "values": [{"measurement": "Specificity", "setting": "C5 [1]; [4]", "result": "Human and Rat"}, {"measurement": "Specificity", "setting": "rat C5 protein; [4]", "result": "Human and Rat"}]}, {"molecule": "553 (TTVHQKTKKTCPRGYHYNDRCEFFNTCRVEECCLNGVVNTYGICEYEGGSATYTYEWYVD; Anti-C5 ultralong CDR-H3) [compound 553]", "values": [{"measurement": "Specificity", "setting": "C5 [1]; [4]", "result": "Human and Rat"}, {"measurement": "Specificity", "setting": "rat C5 protein; [4]", "result": "Human and Rat"}]}, {"molecule": "554 (TTVHQKTKKTCPRGYHYNDRCDFFNTCRVEECCLNGVVNTYGICEYEGGSATYTYEWYVD; Anti-C5 ultralong CDR-H3) [compound 554]", "values": [{"measurement": "Specificity", "setting": "C5 [1]; [4]", "result": "Human and Rat"}, {"measurement": "Specificity", "setting": "rat C5 protein; [4]", "result": "Human and Rat"}]}, {"molecule": "555 (TTVHQKTKKTCPRGYHYNDRCEFFNTCRVEECCLNGVVNTYGICEYEGGSATYTYEWYVD; Anti-C5 ultralong CDR-H3) [compound 555]", "values": [{"measurement": "Specificity", "setting": "C5 [1]; [4]", "result": "Human and Rat"}, {"measurement": "Specificity", "setting": "rat C5 protein; [4]", "result": "Human and Rat"}]}, {"molecule": "557 (TTVHLKTKKSCPLGYAINDRCDDLKTCGPDECCLNGVVNAYGICEYEGESATHTYEWYVD; Anti-C5 ultralong CDR-H3) [compound 557]", "values": [{"measurement": "Specificity", "setting": "C5 [1]; [4]", "result": "Human and Rat"}, {"measurement": "Specificity", "setting": "rat C5 protein; [4]", "result": "Human and Rat"}]}, {"molecule": "558 (TTVHQKTKKSCPLGYAINDRCDDLKTCGPDECCLNGVVNAYGICEYEGESATHTYELYVE; Anti-C5 ultralong CDR-H3) [compound 558]", "values": [{"measurement": "Specificity", "setting": "C5 [1]; [4]", "result": "Human and Rat"}, {"measurement": "Specificity", "setting": "rat C5 protein; [4]", "result": "Human and Rat"}]}, {"molecule": "594 (TCPLGYDLNYRCDHFNTCRVEECCKNGVVNAYGICEYAGGSAT; Anti-C5 ultralong CDR-H3 knob domain) [compound 594]", "values": [{"measurement": "Specificity", "setting": "C5 [1]; [5]", "result": "Human and Rat"}, {"measurement": "Specificity", "setting": "rat C5 protein; [5]", "result": "Human and Rat"}]}, {"molecule": "595 (TCPSGCSWFSGCWDTYRCGPSVCCRDGRYGCAAIICRDT; Anti-C5 ultralong CDR-H3 knob domain) [compound 595]", "values": [{"measurement": "Specificity", "setting": "C5 [1]; [5]", "result": "Human and Rat"}, {"measurement": "Specificity", "setting": "rat C5 protein; [5]", "result": "Human and Rat"}]}, {"molecule": "596 (TCPRGYHYNDRCEFFNTCRVEECCLNGVVNTYGICEYEGGSAT; Anti-C5 ultralong CDR-H3 knob domain) [compound 596]", "values": [{"measurement": "Specificity", "setting": "C5 [1]; [5]", "result": "Human and Rat"}, {"measurement": "Specificity", "setting": "rat C5 protein; [5]", "result": "Human and Rat"}]}, {"molecule": "597 (TCPRGYHYNDRCDFFNTCRVEECCLNGVVNTYGICEYEGGSAT; Anti-C5 ultralong CDR-H3 knob domain) [compound 597]", "values": [{"measurement": "Specificity", "setting": "C5 [1]; [5]", "result": "Human and Rat"}, {"measurement": "Specificity", "setting": "rat C5 protein; [5]", "result": "Human and Rat"}]}, {"molecule": "598 (SCPDGYGYGDGYCYDSGCSASDCYGVDALYSYGHCGCSIYTERPR; Anti-C5 ultralong CDR-H3 knob domain) [compound 598]", "values": [{"measurement": "Specificity", "setting": "C5 [1]; [5]", "result": "Human and Rat"}, {"measurement": "Specificity", "setting": "rat C5 protein; [5]", "result": "Human and Rat"}]}, {"molecule": "599 (SCPLGYAINDRCDDLKTCGPDECCLNGVVNAYGICEYEGESAT; Anti-C5 ultralong CDR-H3 knob domain) [compound 599]", "values": [{"measurement": "Specificity", "setting": "C5 [1]; [5]", "result": "Human and Rat"}, {"measurement": "Specificity", "setting": "rat C5 protein; [5]", "result": "Human and Rat"}]}, {"molecule": "CSCC[C@@H]1NC(=O)[C@@H]2CCCN2C(=O)[C@@H](NC(=O)[C@@H]2CSSC[C@H](NC(=O)[C@@H](N)CO)C(=O)N3CCC[C@H]3C(=O)N[C@@H](CC(=O)O)C(=O)NCC(=O)N[C@@H](Cc3ccccc3)C(=O)N[C@@H](CO)C(=O)N[C@@H](Cc3ccc(O)cc3)C(=O)N[C@@H](CCCNC(=N)N)C(=O)N[C@@H](CO)C(=O)N[C@@H](Cc3c[nH]c4ccccc34)C(=O)N[C@@H](CC(=O)O)C(=O)N[C@@H](CC(=O)O)C(=O)N[C@@H](Cc3ccccc3)C(=O)N2)CSSC[C@@H](C(=O)N[C@@H](CC(C)C)C(=O)N[C@@H](C)C(=O)N2CCC[C@H]2C(=O)N[C@@H](CCCNC(=N)N)C(=O)N[C@@H](CC(N)=O)C(=O)O)NC(=O)[C@H](CCCNC(=N)N)NC(=O)CNC(=O)[C@H](C(C)C)NC1=O", "note": "(H-SCPDGFSYRSWDDFCCPMVGRCLAPRN-OH; disulfide 2-15, 16-22; N-terminus assumed)", "values": [{"measurement": "Kd", "setting": "C5 [2]", "result": 6.17, "unit": "nM"}, {"measurement": "kd", "setting": "C5 [2]", "result": 0.00723, "unit": "s⁻¹"}, {"measurement": "kon", "setting": "C5 [2]", "result": "1.17e+06", "unit": "M⁻¹ s⁻¹"}, {"measurement": "fold more potent than K149B", "setting": "C5 [2]; site directed disulphide forms of K149", "result": 41, "unit": "fold"}, {"measurement": "Kd", "setting": "C5 [3]", "result": 7.31, "unit": "nM"}, {"measurement": "mean stoichiometric ratio", "setting": "C5 [3]; listed as K149chemSD-A", "result": 0.82}, {"measurement": "koff", "setting": "C5 [3]", "result": 0.00484, "unit": "s⁻¹"}, {"measurement": "kon", "setting": "C5 [3]", "result": 713000, "unit": "M⁻¹ s⁻¹"}]}, {"molecule": "CSCC[C@@H]1NC(=O)[C@@H]2CCCN2C(=O)[C@@H]2CSSC[C@H](NC(=O)[C@@H](N)CO)C(=O)N3CCC[C@H]3C(=O)N[C@@H](CC(=O)O)C(=O)NCC(=O)N[C@@H](Cc3ccccc3)C(=O)N[C@@H](CO)C(=O)N[C@@H](Cc3ccc(O)cc3)C(=O)N[C@@H](CCCNC(=N)N)C(=O)N[C@@H](CO)C(=O)N[C@@H](Cc3c[nH]c4ccccc34)C(=O)N[C@@H](CC(=O)O)C(=O)N[C@@H](CC(=O)O)C(=O)N[C@@H](Cc3ccccc3)C(=O)N[C@@H](CSSC[C@@H](C(=O)N[C@@H](CC(C)C)C(=O)N[C@@H](C)C(=O)N3CCC[C@H]3C(=O)N[C@@H](CCCNC(=N)N)C(=O)N[C@@H](CC(N)=O)C(=O)O)NC(=O)[C@H](CCCNC(=N)N)NC(=O)CNC(=O)[C@H](C(C)C)NC1=O)C(=O)N2", "note": "[K149B] (H-SCPDGFSYRSWDDFCCPMVGRCLAPRN-OH; disulfide 2-16, 15-22; N-terminus assumed)", "values": [{"measurement": "Kd", "setting": "C5 [2]", "result": 246, "unit": "nM"}, {"measurement": "kd", "setting": "C5 [2]", "result": 0.00732, "unit": "s⁻¹"}, {"measurement": "kon", "setting": "C5 [2]", "result": 29700, "unit": "M⁻¹ s⁻¹"}, {"measurement": "Kd", "setting": "C5 [3]", "result": 269, "unit": "nM"}, {"measurement": "fold lower affinity (relative to K149chemSD-A)", "setting": "C5 [3]", "result": "approximately 35 fold"}, {"measurement": "mean stoichiometric ratio", "setting": "C5 [3]", "result": 0.81}, {"measurement": "koff", "setting": "C5 [3]", "result": 0.00417, "unit": "s⁻¹"}, {"measurement": "kon", "setting": "C5 [3]", "result": 15600, "unit": "M⁻¹ s⁻¹"}]}]}
